{"source": "paper PMC10347550", "about": "“Cyclic Ruthenium-Peptide Conjugates as Integrin-Targeting Phototherapeutic Prodrugs for the Treatment of Brain Tumors” (Journal of the American Chemical Society, 2023)", "key": {"[1]": {"tested_on": "U87MG cells", "test": "2D cytotoxicity assay, 24 h DLI & no wash, SRB endpoint", "format": "cell-based, human", "conditions": "normoxic 2D monolayer U87MG", "procedure": "For each complex, two identical plates were prepared, one of which was irradiated with light, while the other was used as a dark control. […] Finally, at t = 96 h, 100 μL of cold trichloroacetic acid (10% w/v) was added to each well to fix the cells, and all plates were then transferred to a 4 °C refrigerator for 48 h before performing an SRB cell quantification endpoint assay.[72] Trichloroacetic acid was first removed and each plate was gently washed with demi water 3–5 times. Then, each well was dried in the air, and 100 μL of 0.6% SRB solution (0.6% w/v in 1% v/v acetic acid/H2O solution) was added into each well where it was allowed to stain for 30 min. Then, the plates were washed 3–5 times using an acetic acid solution (1% v/v). Once the plate was washed it was allowed to dry overnight. Then, 200 μL of 10 mM Tris base buffer was added to each well and the plate was allowed to sit on an orbital shaker for 0.5–16 h. After mixing, the absorbance of each well was determined by an M1000 Tecan Reader, reading at 510 nm. All experiments were conducted in independent biological triplicate. The obtained data were analyzed with Graphpad Prism 5 using the dose–response two-parameter Hill slope equation (eq 1) to obtain the half-maximal effective concentrations EC50 (defined as the concentration of drug that kills 50% of cells, compared to the untreated control). [drawing 1] 1"}, "[2]": {"test": "Biodistribution of Ru by ICP-OES", "format": "in vivo, mice", "conditions": "for Ru content, Heart / Ru content, Kidney / Ru content, Liver / Ru content, Lung / Ru content, Spleen / Ru content, Tumor: U87MG tumor-bearing nude mice, ICP-OES, n = 3, ± SD", "procedure": "(§1) All animal studies were approved by the Institutional Animal Care and Use Committee of the US National Institutes of Health and were performed according to the relevant guidelines (8th edition, 2011). Female BALB/c nude mice (6 weeks old) were purchased from Shanghai SLAC Laboratory Animal Co. LTD (Shanghai, China). Tumor-bearing mice were obtained by subcutaneously injecting U87MG tumor cells (2 × 10^6 cells per mouse, dispersed in 100 μL of FBS) into the right hind limb and waiting for 15 days until the tumor volume reached 50–100 mm^3.\nThe Blab/c nude mice bearing U87MG tumors were randomly assigned to two groups (N = 15) and received an intravenous injection of [1]Cl2 (7.7 mg/kg) or [2]Cl2 (5 mg/kg) at the same molar dose. Then, the mice were sacrificed at 2, 6, 12, 18, and 24 h post-injection (each time point contained 3 mice). The main organs (heart, liver, spleen, kidney, lung) and tumor tissue were dissected. Then, around 1 g of organs and tumors was lysed in a 7 mL mixture solution containing 5 mL of 65% HNO3 and 2 mL of 30% (w/w) H2O2 at 100 °C. After 12 h, all solutions had evaporated, and 5 mL of aqueous solution containing 2% HNO3 was added. The Ru content in all samples was measured by ICP-OES (JY-Horiba ICP-OES Ultima 2)."}, "[3]": {"tested_on": "subcutaneous U87MG tumor", "test": "In vivo tumor inhibition study", "design": "species or system mice", "procedure": "as §1\nThe mice bearing U87MG solid tumors were first randomly divided into 6 groups (N = 5): PBS, light, [1]Cl2, [2]Cl2, [1]Cl2 + light, and [2]Cl2 + light. The injectable solution of [1]Cl2 or [2]Cl2 was obtained by diluting the stock solution of the compound in DMSO (10 mg/mL) 10 times by RPMI-1640 medium containing 10% FBS, 100 units/mL penicillin, and 100 μg/mL streptomycin. The injection doses of [1]Cl2 and [2]Cl2 were set as 7.7, 5 mg/kg, respectively (injection volume = 100 μL of the same molar weight of Ru in the last four groups). In groups 2, 5, and 6, laser irradiation (520 nm, 100 mW/cm^2, 5 min) was carried out twice at 12 h post-injection, with a 5 min interval. Accordingly, the total laser dose for each illumination was 100 mW/cm^2, 10 min, and 60 J/cm^2. Treatments in all groups were carried out only once on day 0. Digital photos of tumor-bearing mice, the tumor size (length and width, measured with a caliper), and mouse body weight in all groups were recorded every third day. The tumor volume was calculated according to the standard formula: 0.5 × length × width^2. Both the average tumor volume and body weight were followed for 15 days. On day 7, one mouse from each group was sacrificed and then the tumor tissue was dissected and fixed with 10% paraformaldehyde. The tumor cell damage and apoptosis and necrosis conditions were evaluated by H&E or TUNEL stained protocols. On day 15 (the end of the tumor treatment period), all nude mice were humanly sacrificed, and the main organs (heart, liver, spleen, kidney, and lung) and tumors were resected. Digital photographs of tumors in each group were immediately obtained. All normal tissues were fixed with 10% paraformaldehyde and further analyzed in accordance with the H&E staining protocol, to estimate their off-target side effect after various treatments."}, "[4]": {"conditions": "2 h after i.v. injection of [1]Cl2 7.7 mg/kg or [2]Cl2 5 mg/kg"}, "[5]": {"conditions": "6 h after i.v. injection of [1]Cl2 7.7 mg/kg or [2]Cl2 5 mg/kg"}, "[6]": {"conditions": "12 h after i.v. injection of [1]Cl2 7.7 mg/kg or [2]Cl2 5 mg/kg"}, "[7]": {"conditions": "18 h after i.v. injection of [1]Cl2 7.7 mg/kg or [2]Cl2 5 mg/kg"}, "[8]": {"conditions": "24 h after i.v. injection of [1]Cl2 7.7 mg/kg or [2]Cl2 5 mg/kg"}}}
{"substance": "[Ru(Ph2phen)2(κ^S,κ^N-(Ac-MRGDH-NH2))]Cl2 (sidechain bridge or staple) [[1]Cl2, mixture of diastereoisomers used for the in vivo study]", "values": [{"measurement": "PI", "setting": "[1]; mixture of Δ and Λ isomers (Figure S34a)", "result": 16}, {"measurement": "EC50", "setting": "[1]; mixture of Δ and Λ isomers, green light 520 nm, 13.1 J/cm^2 (Figure S34a), read-out: EC50,light", "result": 2.4, "unit": "µM"}, {"measurement": "Ru content, Heart", "setting": "[2]; [4]", "result": "2.2 ± 0.4", "unit": "%ID/g"}, {"measurement": "Ru content, Kidney", "setting": "[2]; [4]", "result": "3.2 ± 0.3", "unit": "%ID/g"}, {"measurement": "Ru content, Liver", "setting": "[2]; [4]", "result": "40.2 ± 2.8", "unit": "%ID/g"}, {"measurement": "Ru content, Lung", "setting": "[2]; [4]", "result": "1.5 ± 0.2", "unit": "%ID/g"}, {"measurement": "Ru content, Spleen", "setting": "[2]; [4]", "result": "1.9 ± 0.1", "unit": "%ID/g"}, {"measurement": "Ru content, Tumor", "setting": "[2]; [4]", "result": "2.0 ± 0.5", "unit": "%ID/g"}, {"measurement": "Ru content, Heart", "setting": "[2]; [5]", "result": "1.8 ± 0.3", "unit": "%ID/g"}, {"measurement": "Ru content, Kidney", "setting": "[2]; [5]", "result": "2.0 ± 0.2", "unit": "%ID/g"}, {"measurement": "Ru content, Liver", "setting": "[2]; [5]", "result": "29.0 ± 1.6", "unit": "%ID/g"}, {"measurement": "Ru content, Lung", "setting": "[2]; [5]", "result": "1.6 ± 0.2", "unit": "%ID/g"}, {"measurement": "Ru content, Spleen", "setting": "[2]; [5]", "result": "2.1 ± 0.5", "unit": "%ID/g"}, {"measurement": "Ru content, Tumor", "setting": "[2]; [5]", "result": "7.3 ± 0.4", "unit": "%ID/g"}, {"measurement": "Ru content, Heart", "setting": "[2]; [6]", "result": "1.8 ± 0.2", "unit": "%ID/g"}, {"measurement": "Ru content, Kidney", "setting": "[2]; [6]", "result": "1.7 ± 0.3", "unit": "%ID/g"}, {"measurement": "Ru content, Liver", "setting": "[2]; [6]", "result": "16.5 ± 3.5", "unit": "%ID/g"}, {"measurement": "Ru content, Lung", "setting": "[2]; [6]", "result": "1.6 ± 0.2", "unit": "%ID/g"}, {"measurement": "Ru content, Spleen", "setting": "[2]; [6]", "result": "2.2 ± 0.4", "unit": "%ID/g"}, {"measurement": "Ru content, Tumor", "setting": "[2]; [6]", "result": "15.7 ± 1.3", "unit": "%ID/g"}, {"measurement": "amount of ruthenium in the tumor higher than for the group treated with [2]Cl2", "setting": "[2]; 12 h after i.v. injection, same molar dose, P < 0.01", "result": 28, "unit": "%"}, {"measurement": "Ru content, Heart", "setting": "[2]; [7]", "result": "1.9 ± 0.2", "unit": "%ID/g"}, {"measurement": "Ru content, Kidney", "setting": "[2]; [7]", "result": "1.9 ± 0.2", "unit": "%ID/g"}, {"measurement": "Ru content, Liver", "setting": "[2]; [7]", "result": "14.4 ± 4.3", "unit": "%ID/g"}, {"measurement": "Ru content, Lung", "setting": "[2]; [7]", "result": "1.8 ± 0.3", "unit": "%ID/g"}, {"measurement": "Ru content, Spleen", "setting": "[2]; [7]", "result": "1.9 ± 0.3", "unit": "%ID/g"}, {"measurement": "Ru content, Tumor", "setting": "[2]; [7]", "result": "7.2 ± 0.5", "unit": "%ID/g"}, {"measurement": "Ru content, Heart", "setting": "[2]; [8]", "result": "1.8 ± 0.1", "unit": "%ID/g"}, {"measurement": "Ru content, Kidney", "setting": "[2]; [8]", "result": "1.8 ± 0.2", "unit": "%ID/g"}, {"measurement": "Ru content, Liver", "setting": "[2]; [8]", "result": "6.1 ± 1.2", "unit": "%ID/g"}, {"measurement": "Ru content, Lung", "setting": "[2]; [8]", "result": "1.7 ± 0.2", "unit": "%ID/g"}, {"measurement": "Ru content, Spleen", "setting": "[2]; [8]", "result": "1.7 ± 0.2", "unit": "%ID/g"}, {"measurement": "Ru content, Tumor", "setting": "[2]; [8]", "result": "4.1 ± 1.0", "unit": "%ID/g"}, {"measurement": "TUNEL staining of tumor slices", "setting": "[3]; day 7, combined with 520 nm laser irradiation", "result": "induced outstanding apoptosis of tumor cells"}, {"measurement": "antitumor efficiency compared to [2]Cl2 + light", "setting": "[3]; single i.v. dose 7.7 mg/kg + 520 nm laser 60 J/cm^2 at DLI 12 h, 15 days, n = 5", "result": "better antitumor efficiency"}, {"measurement": "effect of light irradiation on tumor growth, light group compared to dark group", "setting": "[3]; single i.v. dose day 0 ([1]Cl2 7.7 mg/kg, [2]Cl2 5 mg/kg), 520 nm laser 60 J/cm^2 at DLI 12 h, tumor volume over 15 days, n = 5", "result": "much stronger tumor growth suppression"}]}
